The text below walks through data of the DeepSol protein solubility set.

A short description of the series: soluble on expression in E. coli; label from the status in PepcDB or PDB records.
As for “MSGYACNQPQLYSQCNCPSFCSGYMQQQPQYYQSPCGYSSGCSGGSGGGYYPRRRHHKHKKPRRKFRFDSDEDEDLPPPPPRKSAKISRVHSEEQGFIEEKPRVTETTKTDSSWENEDLWEKKFVTESTHTKAEEKLDSEEFPEITSEEIEAAMRRKTTLPPRVVQPQPVAPAGGGLGGLGLGNGGLFGISSGVGVGVPGVGPIGVSSGLGIGK”, the “soluble on expression in E. coli” value is on record as “not soluble”.

With “MRMMEAEIKDQRNNLQALKNSQRLSVRGSIQSNMSSRTDGILQRRLDETERKLAKTSAELKAKDEKLKKETASLEASREAHRLLQEESNKSKVSVMRLTFKLNRITHESVKEQAVLKKKLLDCETRLATYSECLVCYQKFDENTRIPRVMDCGHTLCDFCINQIVKMAGCYSATCPFDRVRIFGFGKSRRLEDRPCNRFIMK”, the “soluble on expression in E. coli” value was “not soluble”.

Regarding “MSLNSAMDKILVVNEGGELLRFKAMQQDLLYESLLKNHCYHTAYYLNSFDRLSLQENRARALFLVNKPDANTIFAKYQADRGYGDALELGVVYRTEFEKMLSVSVSGEEYHVTFSSVLSIINGNDVRKIRILSEGTVIRTTPRFPENTSGFFFRTYNQQYEMEGHHHHHH”, the “soluble on expression in E. coli” value is listed as “soluble”.

For the sequence “MHHHHHHSSGVDLGTENLYFQSMVPPIPKQDGGEQNGGMQCKPYGAGPTEPAHPVDERLKNLEPKMIELIMNEIMDHGPPVNWEDIAGVEFAKATIKEIVVWPMLRPDIFTGLRGPPKGILLFGPPGTGKTLIGKCIASQSGATFFSISASSLTSKWVGEGEKMVRALFAVARCQQPAVIFIDEIDSLLSQRGDGEHESSRRIKTEFLVQLDGATTSSEDRILVVGATNRPQEIDEAARRRLVKRLYIPLPEASARKQIVINLMSKEQCCLSEEEIEQIVQQSDAFSGADMTQLCREASLGPIRSLQTADIATITPDQVRPIAYIDFENAFRTVRPSVSPKDLELYENWNKTFGCGK”, the “soluble on expression in E. coli” value is recorded as “soluble”.

“MVADRFSHVRGWVFDLDNTLYPPSARLFDQIERRMTDWVMTELRVVREEADRLRRHYWSTYGTTLAGLMAEHGVDPAPYLSHVHDISLDHLERDMILAARIRALPGRKIVYTNGCAPYAERVLEARGLANLFDAVYGVEHAGFRPKPDRAAFETVFAADRLAPGTAAMFEDDSRNLLAPHEMGMRTVHVAPEALPAPHIHHHTLDLSEFLALLQP”: the “soluble on expression in E. coli” value is given as “not soluble”.

For “MSADEPSPEDEKYLESLRDLLKISQEFDASNAKQNDEPEKTAVEVESAETRTDESEKSIDIPREQQLLPSERVEPLKSMVEPEYVKKVIRQMDTMTAEQLKQALMKIKVSTGGNKKTLRKRVAQYYRKENALLNRKMEPNADKTARFFDYLIAIDFECTCVEIIYDYPHEIIELPAVLIDVREMKIISEFRTYVRPVRNPKLSEFCMQFTKIAQETVDAAPYFREALQRLYTWMRKFNLGQKNSRFAFVTDGPHDMWKFMQFQCLLSNIRMPHMFRSFINIKKTFKEKFNGLIKGNGKSGIENMLERLDLSFVGNKHSGLDDATNIAAIAIQMMKLKIELRINQKCSYKENQRSAARKDEERELEDAANVDLTSVDISRRDFQLWMRRLPLKLSSVTRREFINEEYLDCDSCDDLTDDKVKHLHSCDIYEIFDEKTSASFTDSKCLIC”, the “soluble on expression in E. coli” value is given as “soluble”.

“MAHHHHHHMLRFTVPALVVFQNAYAPRVLNRMTPDRMELTMLILKERKKKVRYLGSNFQGFNDRVHLFNAQGGVRRGTRYIIETHHNRIQFKHRSRNNSMVDVRAVKMAGSQYDSIGNYTRMTWDNSLCTTNLLSDPNFKRHFKNMPKEETIGVLEEWGVRYILLDEIRKPSLMDCKYHKHHLYADKFWWSPSPETNHMRGDAEFKWKGNELIAYGDYNAHMQHPANFVTSSSSGSSGSGAATSKSAAAAAGSKKGASARPWFRRTVVVRKSQASDTKPLSTASKIAAAGTSK”: the “soluble on expression in E. coli” value was “soluble”.

Regarding “MAHHHHHHMHSSPFPSLFLVSRNGAHASRFSVVQLEYITSTCFSLLQVVTYRVATCSHGTMTALADEVREKYSLSLSSDYVERCVQAKASLTSLELYQKSLWENLRDICGTSLLPYGIGAQVSATLPNAVVMQINASRDATQPLRPCADASDEEAFLNAAFQRNSSKRLLRLQLTDGNVEISALELSTLCVFQGIPTPGEKLLIHKGAEVRNGCIILSEGSVSVLGGEVRQLKQDFLANRRRLEVGYQTSNGLDGAPRFAPLQVGHHYRSSVANSGAPVDIGHQGGASPYHANERGGRRSNYSRNGGGGGRAQQAGDNYEGRVSAGDHGRGGRGGRGGRGWDSSYGGDGWRGHGRRGGGYVRRGDGGRVDSRGCVGGASYHVDTANFQPPAEKFPEINEANFPRLV”, the “soluble on expression in E. coli” value is listed as “not soluble”.

Take “MSAPAAGATAGGDDAADRNVEMWKIKRLIKSLELARGNGTSMISLIIPPKDQVARIQRMLAEEYGTASNIKSRVNRLSVLGAITSVQGRLKLYNKVPPNGLVVYCGTIMTDEGKEKKVNIDFEPFKAINTSLYLCDNKFHTEALQGLLADDNKFGFIIMDGNGCLFGTLQGNTREVLHKFTVDLPKKHGRGGQSAVRFARLRNEKRHNYVRKVAENSVEQFIKNDKVTVAGLILAGSADFKTELGQSDMFDQRLQAKMIKTVDIAYGGENGFNQAIELAADTLASVKFIQEKKLIGGYFDEISQDTGKYVFGVKDTLAALEMGAIETLICWENLDIVRYKMKNSLGEDILLNLRPDEEKDKSHFTDSETGQDMEIIETMPLLEWFANNYKNFGAALEIVTDKSQEGAQFVRGFGGIGGLLRYRVDLAHVDLEDELDNIDLDDY”: the “soluble on expression in E. coli” value is recorded as “not soluble”.

Regarding “EKDTIAAEHKQEASVLLNLHRNKINYLIGETMARMTSLSIAIDRPVDIKKMQSILEKTFDSEPRFSGLYFLNAKGDVTASTTELKTKVNLADRSFFIKAKETKKTVISDSYSSRITGQPIFTICVPVLDSKRNVTDYLVAAIQIDYLKNLINLLSPDVYIEVVNQDGKMIFASGQASHAEDQKPVSGYLDDISWNMKVYPNPVTIEELSKS”, the “soluble on expression in E. coli” value was “not soluble”.

In the case of “MGSDKIHHHHHHMNKSIFDDINSTNIGSYWTTLSQQMDPYLWETLMPNSKQIASDFVFYRGMSNAPKPLAPSAFGVPAIMRKRSGFDRVSDHTRYFKEGYYIDEAIRQQLLRVGANATQAEKDMINNHIFQDSMELLKGAQLTREIMRNQIIQTGKINVIGNGQTITADYQMKASHRVVNDKAWGTTGSTPFEDIQKARDLVGDDSDQVITRAVMNKATFNALMSDTNVKSTMLYDNGKLANVTIPQSELLNFLVTNYGLTVQIYDKRYMDIDGTKKKWIPDGRVIFLPDGELGKTIMSTTPEEADLAAASDVDMTLVDNGVAITTMLDSDPVNKKINVSQEVMPSFPQIDGIYILDAFAKTGTDPLATTPTAPASTTTTTDPKA”, the “soluble on expression in E. coli” value is “not soluble”.

Turning to “MPRFAANLSMMFTEVPFIERFAAARKAGFDAVEFLFPYNYSTLQIQKQLEQNHLTLALFNTAPGDINAGEWGLSALPGREHEAHADIDLALEYALALNCEQVHVMAGVVPAGEDAERYRAVFIDNIRYAADRFAPHGKRILVEALSPGVKPHYLFSSQYQALAIVEEVARDNVFIQLDTFHAQKVDGNLTHLIRDYAGKYAHVQIAGLPDRHEPDDGEINYPWLFRLFDEVGYQGWIGCEYKPRGLTEEGLGWFDAWRGS”, the “soluble on expression in E. coli” value was “soluble”.

As for “MWYHRLSHLHSRLQDLLKGGVIYPALPQPNFKSLLPLAVHWHHTASKSLTCAWQQHEDHFELKYANTVMRFDYVWLRDHCRSASCYNSKTHQRSLDTASVDLCIKPKTIRLDETTLFFTWPDGHVTKYDLNWLVKNSYEGQKQKVIQPRILWNAEIYQQAQVPSVDCQSFLETNEGLKKFLQNFLLYGIAFVENVPPTQEHTEKLAERISLIRETIYGRMWYFTSDFSRGDTAYTKLALDRHTDTTYFQEPCGIQVFHCLKHEGTGGRTLLVDGFYAAEQVLQKAPEEFELLSKVPLKHEYIEDVGECHNHMIGIGPVLNIYPWNKELYLIRYNNYDRAVINTVPYDVVHRWYTAHRTLTIELRRPENEFWVKLKPGRVLFIDNWRVLHGRECFTGYRQLCGCYLTRDDVLNTARLLGLQA”, the “soluble on expression in E. coli” value was “not soluble”.

Consider “MGKTLYEKVYDAHVAVAAEGETPILYIDRHLVHEVTSPQAFDGLREKGRKVRQVSKTFATMDHNVSTTTKDINASGEMARIQMETLSKNCEEFGVTLYDLNHKYQGIVHVMGPELGITLPGMTIVCGDSHTATHGAFGSLAFGIGTSEVEHVLATQTLKQARAKT”, for which the “soluble on expression in E. coli” value was “not soluble”.

As for “GPGSMPRGAIPTGQDWEEQRFNFQQRGSGGSAQPRKVTERDANRAMQSGQNVQVQRKEHQRFNQQTVSAGANAKKLDEDNETLKVKKVDPHLRVRIMKERQALNWSQQDLAQRISERVSVVAEYESGKAVQEERVIVKMEKALGVHLRGAKAGEPMGKTRPAPKAQE”, the “soluble on expression in E. coli” value is “soluble”.

Take “MSLKNQLGQLALEQAKTFGGKLEVQPKVDIKTKHDLSIAYTPGVASVSSAIAKDKTLAYDLTTKKNTVAVISDGTAVLGLGDIGPEAAMPVMEGKAALFKAFAGVDAIPIVLDTKDTEEIISIVKALAPTFGGINLEDISAPRCFEIEQRLIKECHIPVFHDDQHGTAIVVLAAIFNSLKLLKKSLDEVSIVVNGGGSAGLSITRKLLAAGATKVTVVDKFGIINEQEAAQLAPHHLDIAKVTNREFKSGTLEDALEGADIFIGVSAPGVLKAEWISKMAARPVIFAMANPIPEIYPDEALEAGAYIVGTGRSDFPNQINNVLAFPGIFRGALDARAKTITVEMQIAAAKGIASLVPDDALSTTNIIPDAFKEGVAEIVAKSVRSVVLKSEGHHHHHH”: the “soluble on expression in E. coli” value was “soluble”.

For “MKIWSKEEVVNKLHEIKNKGYLSVPTDMFRTDDGVVGQILERQFGVQENNITLGDLGEFELKGMRNRKAKSNLTLFHKKPVAGQTVIQIFNRFGYVKPSSRNPEVMKKKLFTTIKGGRLNNLGLTLNAKHASEINLYYQDEYLSTWDLNLSKIEKLVLVFAETIGRANSPEEQFHFTKAYMLTEINDITSLINDGVLVMDLCIDQDLSKSKGPHDRGPHLRIPISKLDKLYRNIERLL”, the “soluble on expression in E. coli” value is “soluble”.

For “MMGFSFYFFNEERYKMDKKDYKINKQNATAAKQQPLSPAAQRALNEAEERRKHETNEEKPLENGGRGGKDPSRYGDWEIKGRAIDFLEHHHHHH”, the “soluble on expression in E. coli” value was “not soluble”.

For “MKVEKEFPLMNFSLRRLPLFILIKTRKQTIEMNLRKKGHGIFFSRFGVFISKKKNHINICTLLLTKHPYTKGFPRQNVVETILFRRNSKTHFGRPATRRRPLGEREVNPSARSLG”, the “soluble on expression in E. coli” value is “soluble”.

For “MIGRRHPYYPYLEAALEAASLARGIHLYYLEKGFTEGTKSGPTDLVTQADREAEEAVKGLLLSRFPEAGFLGEEGGSEGGKALRFIVDPLDGTVNYAHGFPFFAVSIALEAESAIQMGVVMDTARGEVFYALRGEGAYLNGRPIRVTGRESLVGSLLATGFPYDVAKDPENLTYFERALRKGLLVRRPGAAALDLAYVAAGRLEGFWEVKLNPWDVAAGWLLVEEAGGRVTDLEGNPYRLGSRYILATNGRVHEALRRTLLGLD”, the “soluble on expression in E. coli” value is “soluble”.

For the sequence “MSRVPEPSVFLVVDEAKRKARERGVGLIDLSIGSTDLPPPEAPLKALAEALNDPTTYGYCLKSCTLPFLEEAARWYEGRYGVGLDPRREALALIGSQEGLAHLLLALTEPEDLLLLPEVAYPSYFGAARVASLRTFLIPLREDGLADLKAVPEGVWREAKVLLLNYPNNPTGAVADWGYFEEALGLARKHGLWLIHDNPYVDQVYEGEAPSPLALPGAKERVVELFSLSKSYNLAGFRLGFALGSEEALARLERVKGVIDFNQYAGVLRMGVEALKTPKEVVRGYARVYRERALGMAEALKGVLSLLPPRATMYLWGRLPEGVDDLEFGLRLVERGVALAPGRGFGPGGKGFVRIALVRPLEELLEAAKRIREALD”, the “soluble on expression in E. coli” value was “soluble”.
